Assays:
[1] = target: T1, PIN149 fully human Id protein (HV3-23 / KV4-1) (human); experiment: SPR (BIACORE 2000); mAb captured on anti-mouse surface, fully human Id protein as analyte, 25 C
T1 construct: Recombinant patient-derived idiotype immunoglobulin used as antigen; also called PIN149 Id protein; Immunogen (for 3C9, 6C9, 10H7, 15E1); not shown: human immunoglobulin heavy chain constant region, isotype G3 (HCG3); human immunoglobulin kappa light chain constant region (KC)
Method: (§1) Binding constants were also determined for three of the sequenced clones (3C9, 10H7, and 20H5), as well as for two additional clones (6C9 and 15E1). The association and disassociation rates were measured by surface plasmon resonance using a BIACORE 2000 machine.
(§2) In addition, based on ELISA results, PIN185 was used as a positive control Id protein for 10H7 and 15E1 and a negative control Id protein for 3C9 and 6C9 and PIN149 was used as a non-binding Id protein for 20H5. Each mAb was captured onto an anti-mouse surface and tested for binding to the fully human Id protein. Following the mAb capture phase of the assay for the (@2 ug/ml), the fully human Id proteins were all diluted to a starting concentration of 250 nM and tested in a three fold dilution series. Each concentration was tested in duplicate. The running buffer contained PBS plus 0.005% tween-20 and 0.1 mg/ml BSA as a carrier. Binding data were collected at 25° C. […] The other data sets all fit well to a single site interaction model.

[2] = target: T2, PIN185 fully human Id protein (human); experiment: as above
T2 construct: Patient-derived idiotype immunoglobulin used as control antigen in SPR
Method: as §1, §2

659 = target: T3, 659; experiment: ELISA
T3 construct: H3-21 K4-1; also called PIN659
Description: (§3) Before specificity screening, all of the clonal immunogen-positive hybridoma supernatants were re-screened on the immunogen, a non-family member Id protein, and KLH, if animals were immunized with Id protein that has been conjugated KLH. As described above, this screen identifies HC-specific clones but not mAbs against the light chain constant region. Clones identified positive to the immunogen and KLH were […]. Those found positive to the immunogen but not to the non-family member Id protein or KLH were tittered on the immunogen. In addition to normalizing for different binding affinities and concentrations, each hybridoma supernatant was titered on the fully human form of the Id protein used as the immunogen(s) for the V regions. The titer or dilution resulting in an ELISA absorbance of 2.5 to 3 OD after 30 min. incubation time was then used. Hybridoma specificity was determined by screening against available Id proteins expressing the same HV and KV or LV as well as different HV, KV and LV. The final ELISA results are expressed as follows: 0 (<0.5 OD), 1 (0.5-1.0 OD), or 4 (1-4 OD). Positive hybridoma supernatants are categorized according to specificity: anti-Id, anti-constant region (HC, KC or LC), or V region (HV, KV, LV family or family member).
(§4) In general, the fully human Id protein or proteins containing the immunogen V regions were coated onto 96-well ELISA plates at 2.5-5 ug/mL in carbonate buffer pH 9.6 and incubated at 4° C. for up to 14 days. On the day of the ELISA, plates were brought to RT and blocked with Tris-Tween-20, pH 7.6 for 15-60 min. at RT. Following a NaCl and Triton X-100 wash, diluted hybridoma cell culture supernatants were incubated overnight at 4° C. Hybridoma supernatant dilutions ranged from 1:2 to 1:25 and were prepared in PBS with 5% BSA. Plates were washed and incubated with HRP-conjugated goat anti-mouse IgG-specific detecting antibody. A chromogenic substrate (TMB) was used to measure the amount of mouse antibody bound to each well. The reaction was stopped at or before 30 minutes with IN H2SO4 and plates were read immediately. Absorbency readings at 450 nm ranging between 0-4 OD and using Molecular Devices plate reader and SOFTMAX PRO software.

844 = target: T4, 844; experiment: ELISA
T4 construct: H3-7 K4-1; also called PIN844
Description: as §3, §4

952 = target: T5, 952; experiment: ELISA
T5 construct: H3-66 K4-1; also called PIN952
Description: as §3, §4

199 = target: T6, 199; experiment: ELISA
T6 construct: H3-7 K4-1; also called PIN199
Description: as §3, §4

913 = target: T7, 913; experiment: ELISA
T7 construct: fully human Id protein; also called PIN913
Description: as §3, §4

[3] = target: T1, PIN149 fully human Id protein (HV3-23 / …); experiment: ELISA
Description: as §3, §4

1154 = target: T8, 1154; experiment: ELISA
T8 construct: H4-61 K4-1; also called PIN1154
Description: as §3, §4

1088 = target: T9, 1088; experiment: ELISA
T9 construct: H2-5 K4-1; also called PIN1088
Description: as §3, §4

204 = target: T10, 204; experiment: ELISA
T10 construct: H3-15 K4-1; also called PIN204
Description: as §3, §4

839 = target: T11, 839; experiment: ELISA
T11 construct: H3-23 K4-1; also called PIN839
Description: as §3, §4

1145 = target: T12, 1145; experiment: ELISA
T12 construct: H3-11 K4-1; also called PIN1145
Description: as §3, §4

1014 = target: T13, 1014; experiment: ELISA
T13 construct: H3-53 K4-1; also called PIN1014
Description: as §3, §4

626 = target: T14, 626; experiment: ELISA
T14 construct: H5-51 K4-1; also called PIN626
Description: as §3, §4

170 = target: T15, 170; experiment: ELISA
T15 construct: H4-34 K4-1; also called PIN170
Description: as §3, §4

628 = target: T16, 628; experiment: ELISA
T16 construct: fully human Id protein; also called PIN628
Description: as §3, §4

987 = target: T17, 987; experiment: ELISA
T17 construct: H3-23 K4-1; also called PIN987
Description: as §3, §4

591 = target: T18, 591; experiment: ELISA
T18 construct: H3-23 K4-1; also called PIN591
Description: as §3, §4

763 = target: T19, 763; experiment: ELISA
T19 construct: H4-59 K4-1; also called PIN763
Description: as §3, §4

950 = target: T20, 950; experiment: ELISA
T20 construct: H4-59 K4-1; also called PIN950
Description: as §3, §4

791 = target: T21, 791; experiment: ELISA
T21 construct: H3-30 K4-1; also called PIN791
Description: as §3, §4

179 = target: T22, 179; experiment: ELISA
T22 construct: H3-11 K4-1; also called PIN179
Description: as §3, §4

[4] = target: T2, PIN185 fully human Id protein; experiment: ELISA
Description: as §3, §4

529 = target: T23, 529; experiment: ELISA
T23 construct: H3-48 K4-1; also called PIN529
Description: as §3, §4

192 = target: T24, 192; experiment: ELISA
T24 construct: H5-51 K4-1; also called PIN192
Description: as §3, §4

898 = target: T25, 898; experiment: ELISA
T25 construct: H3-15 K4-1; also called PIN898
Description: as §3, §4

112 = target: T26, 112; experiment: ELISA
T26 construct: H4-39 K4-1; also called PIN112
Description: as §3, §4

792 = target: T27, 792; experiment: ELISA
T27 construct: H1-3 K4-1; also called PIN792
Description: as §3, §4

1023 = target: T28, 1023; experiment: ELISA
T28 construct: H4-4 K4-1; also called PIN1023
Description: as §3, §4

T1 sequence (VH, as listed by the source, chain 1 of 2): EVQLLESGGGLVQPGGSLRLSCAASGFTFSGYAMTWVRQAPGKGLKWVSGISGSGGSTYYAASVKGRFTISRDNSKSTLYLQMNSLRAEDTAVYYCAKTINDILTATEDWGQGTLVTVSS
T1 sequence (VL, as listed by the source, chain 2 of 2): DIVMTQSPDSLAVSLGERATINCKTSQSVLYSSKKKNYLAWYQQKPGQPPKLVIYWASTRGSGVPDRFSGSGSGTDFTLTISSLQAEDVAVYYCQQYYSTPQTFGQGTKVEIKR
T16 sequence (VH, as listed by the source, chain 1 of 2): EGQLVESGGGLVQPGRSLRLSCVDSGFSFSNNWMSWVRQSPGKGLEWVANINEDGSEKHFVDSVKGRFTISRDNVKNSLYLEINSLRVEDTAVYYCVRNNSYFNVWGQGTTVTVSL
T16 sequence (VL, as listed by the source, chain 2 of 2): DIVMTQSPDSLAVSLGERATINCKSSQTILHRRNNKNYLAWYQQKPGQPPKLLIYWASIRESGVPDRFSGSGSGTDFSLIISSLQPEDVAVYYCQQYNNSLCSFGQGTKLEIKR
T7 sequence (heavy, as listed by the source): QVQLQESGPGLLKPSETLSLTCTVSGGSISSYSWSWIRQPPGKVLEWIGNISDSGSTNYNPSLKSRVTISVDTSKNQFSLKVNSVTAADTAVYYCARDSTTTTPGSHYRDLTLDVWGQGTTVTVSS

B1: mAb clone 10H7 (antibody, V domains shown)
VH: EVQLVESGGGLVKPGGSLKLSCTASGFTFSSYAMSWVRQSPEKRLEWVAEISSGGIHTYYSDTVTGRFSISRDNAKNSTLYLEMNSLRSEDTAIYYCARETTGTWGQGTLVTVSA
VL: QIVLTQSPAIMSASPGEKVTMTCSVSSSITYMHWFRQKPGTSPKLWIYTTSNLASGVPARFSGSGSGTSYSLTISRMEAEDAATYYCQQRSRYPFTFGSGTKLEIKR
notes: Mouse hybridoma mAb, fusions 13/14 (immunogen PIN149 chimera-KLH)
Q: B1 was tested. Which Kd [1] did it give?
A: 0.83 nM

Q: And the koff [1]?
A: 3.8e-05 s⁻¹

Q: What about the kon [1] of the same binder?
A: 45400 M⁻¹ s⁻¹

Q: What about the Kd [2] of the same binder?
A: 3 nM

Q: What about the koff [2] of the same binder?
A: 9.9e-05 s⁻¹

Q: What about the kon [2] of the same binder?
A: 33200 M⁻¹ s⁻¹

Q: And the grade 659?
A: 4

Q: What about the grade 844 of the same binder?
A: 4

Q: What about the grade 952 of the same binder?
A: 4

Q: What about the grade 199 of the same binder?
A: 4

Q: And the grade 913?
A: 4

Q: What about the grade [3] of the same binder?
A: 4

Q: And the grade 1154?
A: 4

Q: What about the grade 1088 of the same binder?
A: 4

Q: What about the grade 204 of the same binder?
A: 4

Q: What about the grade 839 of the same binder?
A: 4

Q: What about the grade 1145 of the same binder?
A: 4

Q: What about the grade 1014 of the same binder?
A: 4

Q: And the grade 626?
A: 4

Q: What about the grade 170 of the same binder?
A: 4

Q: And the grade 628?
A: 4

Q: What about the grade 987 of the same binder?
A: 4

Q: What about the grade 591 of the same binder?
A: 4

Q: And the grade 763?
A: 4

Q: What about the grade 950 of the same binder?
A: 4

Q: And the grade 791?
A: 4

Q: What about the grade 179 of the same binder?
A: 4

Q: What about the grade [4] of the same binder?
A: 4

Q: And the grade 529?
A: 4

Q: What about the grade 192 of the same binder?
A: 4

Q: What about the grade 898 of the same binder?
A: 4

Q: What about the grade 112 of the same binder?
A: 4

Q: And the grade 792?
A: 4

Q: And the grade 1023?
A: 4
